Experimental data published in patent US20180207271A1 (CENTRE HOSPITALIER UNIVERSITAIRE VAUDOIS CHUV, published 2018).

B1: recombinant human IL-26 (ligand, UniProt Q9NPH9 22-171, looked up)
chain: KHKQSSFTKSCYPRGTLSQAVDALYIKAAWLKATIPEDRIKNIRLLKKKTKKQFMKNCQFQEQLLSFFMEDVFGQLQLQGCKKIRFVEDFHSLRQKLSHCISCASSAREMKSITRMKRIFYRIGNKGIYKAISELDILLSWIKKLLESSQ
notes: In some functional rows the IL-26 is natural IL-26 in TH17 cell supernatants, as said in the readout; also called rhIL-26; AK155
B2: anti-IL-26 mouse monoclonal antibody clone 142-84-B1 (antibody, V domains shown)
VH: QVQLQQSGAELVRPGASVTLSCKASGFTFPDYEIHWVRQTPVHGLEWIGGIDPETGDTANNQKFKGKATLTADTSSSTAYMELRSLTSEDSAVYYCTRFYGSFDYWDQGTTLTVSS
VL: NIMMTQSPSSLAVSAGEKVTLSCKSSQSVLYSSNQKNYLAWYQQKPGQSPKLLIYWASTRESGVPDRFTGSGSGTDFTLTISSVQAEDLAVYYCHQYLSSYTFGGGTKLEIK
notes: Mouse hybridoma antibody, IgG1; also called clone 84

How the values were obtained:
[1] = biological target: the molecule itself; experiment: small angle X-ray scattering (SAXS) of rhIL-26, self-association
Protocol: IL-26 was suspended in 16 mM sodium phosphate buffer, pH 6.5, 560 mM NaCl, 8% glycerol, 2 mM β-mercaptoethanol and concentrated to 1.1 mg/ml. Data were recorded at the ALS, Berkeley, Calif., beamline 12.3.1. (SIBYLS) at 10° C. using a wavelength of 1 A, for values of the momentum transfer vector q=(4π sin θ)/λ between 0.01 and 0.32 Å-1. The same sample was sequentially exposed to X-rays for 0.5s, 1s and 5s. Samples containing buffer only were measured before and after protein samples. The buffer contributions were subtracted from protein scattering data using the ogre new software program available at SIBYLS. Data were not affected by radiation damage as indicated by a constant Rg of the Guinier region for subsequent sample exposures. A combined SAXS pattern was obtained through scaling and merging selected regions of buffer-subtracted scattering pattern for the 0.5s, 1s and 5s exposures. Data between q=0.01 and 0.13 Å-1 were analyzed using PRIMUS, SASREF and DAMMIF of the ATSAS software package.

recombinant human IL-26 = biological target: B1; experiment: ELISA screen of hybridomas

binding result (recombinant human IL-26)	Binder	binding result [1]
–	B1	binds
binds	B2	–
